According to publication PMC4434903:
One block for each molecule: values may come before it.

Tests used:
full length TOP1-His = full length TOP1-His (UniProt Q94AM1); test: SEC; Superdex 200 gel filtration of cobalt-column purified His-tagged protein, no DTT; apparent MW by interpolation with conalbumin and aldolase; peak areas at A280
[1] = molecular target: T1, TOP2 fused to the N-terminal or the C-terminal half of Renilla luciferase, Q949P2; test: split reporter (BiFC, NanoBiT); split Renilla luciferase complementation in Arabidopsis protoplasts co-transformed with NLuc and CLuc fusions; luminescence read 12-16 h after transformation; with or without 100 or 200 uM SA (3 h); conditions: remark: other sources report otherwise
T1 chain: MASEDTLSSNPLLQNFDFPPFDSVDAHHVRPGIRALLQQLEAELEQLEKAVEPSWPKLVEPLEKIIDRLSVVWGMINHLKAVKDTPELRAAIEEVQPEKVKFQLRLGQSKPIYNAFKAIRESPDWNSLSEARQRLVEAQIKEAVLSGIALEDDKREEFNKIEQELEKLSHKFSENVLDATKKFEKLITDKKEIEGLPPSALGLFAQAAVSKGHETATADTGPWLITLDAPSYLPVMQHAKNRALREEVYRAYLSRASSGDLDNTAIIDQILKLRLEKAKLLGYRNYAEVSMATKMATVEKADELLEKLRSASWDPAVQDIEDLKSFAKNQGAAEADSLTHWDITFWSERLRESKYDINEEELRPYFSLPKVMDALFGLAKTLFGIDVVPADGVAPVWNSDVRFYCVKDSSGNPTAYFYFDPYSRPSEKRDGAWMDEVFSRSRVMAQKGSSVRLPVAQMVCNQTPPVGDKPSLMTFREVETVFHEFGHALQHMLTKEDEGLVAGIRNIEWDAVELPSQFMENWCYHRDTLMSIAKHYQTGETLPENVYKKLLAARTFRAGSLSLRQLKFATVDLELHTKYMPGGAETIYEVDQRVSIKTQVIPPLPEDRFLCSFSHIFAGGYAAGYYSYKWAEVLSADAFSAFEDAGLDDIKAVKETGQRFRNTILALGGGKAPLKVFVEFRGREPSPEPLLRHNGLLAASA

[2] = molecular target: T2, full length TOP2-His, Q949P2; test: SEC; Superdex 200 gel filtration of cobalt-column purified His-tagged protein, no DTT; apparent MW by interpolation with conalbumin and aldolase; peak areas at A280; conditions: remark: other sources report otherwise
T2 chain: T1 chain

- stoichiometry N (full length TOP1-His): 2
Molecule: full length TOP1-His (from UniProt Q94AM1 83-791) (enzyme)

- fold luminescence intensity over TOP1-TOP1 or TOP1-TOP2 [1]: 3.4 fold
B1: TOP2 fused to the N-terminal or the C-terminal half of Renilla luciferase, Q949P2 1-701 (enzyme)
chain: T1 chain

- stoichiometry N [2]: 2
B2: full length TOP2-His, Q949P2 1-701 (enzyme)
chain: T1 chain
